Assay results reported in publication PMC4901319.

Columns and labels:
R163W hCCS (human) [1] = target: R163W hCCS (human) (UniProt O14618); assay: SEC-MALS; Agilent BioSEC-3 column, 20 mM Tris-HCl, 150 mM NaCl (TBS) with 1 mM DTT, 20 °C; monomer to dimer
R163W hCCS (human) [2] = target: R163W hCCS (human) (UniProt O14618); assay: SEC; GE Superdex 200 10/300, TBS with 1 mM DTT, 0.5 ml/min, 500 μl loaded; high concentrations (series from 26 up to 918 μM before the column); monomer to dimer
[3] = target: copper chaperone for SOD1 (hCCS), wild-type, zinc metalated (human) (UniProt O14618); assay: SEC-MALS; Agilent BioSEC-3 column, 20 mM Tris-HCl, 150 mM NaCl (TBS) with 1 mM DTT, 20 °C; monomer to dimer
[4] = target: copper chaperone for SOD1 (hCCS), wild-type, zinc metalated (human) (UniProt O14618); assay: SEC; reducing conditions as above but with metal apo (zinc deficient) SOD1, mixed 1:1 with Zn-hCCS; Agilent BioSEC-3, TBS with 1 mM DTT, 20 °C
[5] = target: copper chaperone for SOD1 (hCCS), wild-type, zinc metalated (human) (UniProt O14618); assay: SEC; non-reducing time course with metal apo SOD1: SOD1 reduced and desalted into oxygen purged TBS, mixed with hCCS (copper apo/zinc holo or copper(I) loaded), incubated at 20 °C (8 minutes to 20 hours), then SEC

stoichiometry N (R163W hCCS (human) [1])	stoichiometry N (R163W hCCS (human) [2])	stoichiometry N [3]	stoichiometry N [4]	stoichiometry N [5]	Substance
2	2	–	–	–	R163W hCCS (from UniProt O14618 1-274) (natural protein)
–	–	2	2	2	copper chaperone for SOD1 (hCCS), wild-type, zinc metalated (from UniProt O14618 1-274) (natural protein)
